# Patent US20130071418
# What was measured:
# PCP-consensus VPg = system: T1, PCP-consensus VPg
# T1 sequence: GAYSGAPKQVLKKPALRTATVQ
substance,measurement,setting,value
Coxsackie virus A25 polymerase (CVA Pol3D),uridylylation of VPg by Pol3D,CVA24 VPg,uridylylated the PCP-consensus VPg as well or better than the one encoded in their respective genomes
same,uridylylation of VPg by Pol3D,PCP-consensus VPg,both the PV-Pol3D and that of CVA uridylylated the PCP-consensus VPg as well or better than the one encoded in their respective genomes
